This note sets out measurements from IntAct's records for PubMed 21368759.

B1: Adapter protein MecA 1 (Bacillus subtilis), P37958 (parent)
chain: MEIERINEHTVKFYMSYGDIEDRGFDREEIWYNRERSEELFWEVMDEVHEEEEFAVEGPLWIQVQALDKGLEIIVTKAQLSKDGQKLELPIPEDKKQEPASEDLDALLDDFQKEEQAVNQEEKEQKLQFVLRFGDFEDVISLSKLNVNGSKTTLYSFENRYYLYVDFCNMTDEEVENQLSILLEYATESSISIHRLEEYGKLIISEHALETIKKHFAS
partner: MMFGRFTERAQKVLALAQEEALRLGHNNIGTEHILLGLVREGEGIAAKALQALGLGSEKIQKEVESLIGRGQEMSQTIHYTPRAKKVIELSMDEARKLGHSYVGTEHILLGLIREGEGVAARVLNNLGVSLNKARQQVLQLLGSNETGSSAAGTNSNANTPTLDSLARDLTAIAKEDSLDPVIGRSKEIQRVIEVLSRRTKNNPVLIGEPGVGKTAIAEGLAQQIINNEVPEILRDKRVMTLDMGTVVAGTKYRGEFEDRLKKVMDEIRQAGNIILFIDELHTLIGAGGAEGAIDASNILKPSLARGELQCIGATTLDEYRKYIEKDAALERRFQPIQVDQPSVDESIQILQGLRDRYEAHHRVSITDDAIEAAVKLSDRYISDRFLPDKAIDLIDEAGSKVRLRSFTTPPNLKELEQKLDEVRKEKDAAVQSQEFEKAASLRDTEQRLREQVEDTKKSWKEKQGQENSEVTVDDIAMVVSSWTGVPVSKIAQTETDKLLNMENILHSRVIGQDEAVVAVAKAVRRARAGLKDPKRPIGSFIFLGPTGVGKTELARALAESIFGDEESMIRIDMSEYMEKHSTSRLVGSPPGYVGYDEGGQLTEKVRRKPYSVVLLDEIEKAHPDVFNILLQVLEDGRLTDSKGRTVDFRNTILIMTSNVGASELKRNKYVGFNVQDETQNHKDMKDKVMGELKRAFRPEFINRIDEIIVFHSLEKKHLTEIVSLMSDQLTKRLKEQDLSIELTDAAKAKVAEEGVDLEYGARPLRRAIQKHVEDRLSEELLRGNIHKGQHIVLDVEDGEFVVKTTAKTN

In the assay the parent is B1. As to conditions: with clpc_bacsu clpC.
As for MEIERINEHTVKFYMSYGDIEDRGFDREEIWYNRERSEELFWEVMDEVHEEEEFAVEGPLWIQVQALDKGLEIIVTKAQLSKDGQKLELPIPEDKKQEPASEDLDALLDDFQKEEQAVNQEEKEQKLQFVLRFGDFEDVISLSKLNVNGSKTTLYSFENRYYLYVDFCNMTDEEVENQLSILLRYATESSISIHRLEEYGKLIISEHALETIKKHFAS [E184R], the “effect of a mutation on the interaction” value is given as “disrupting interaction”.
